pKd: −log10 of the molar value.
What was measured:
[1] = biological target: Biotinylated human serum albumin (Homo sapiens) (UniProt P02768); assay: flow cytometry on cells; yeast surface titration at pH 7.4: NbAlb1 displayed on yeast (2 x 10^5 cells per well), ten concentrations of soluble biotinylated SA from 30 pM to 1 μM, 1 h at 4°C, PBS pH 7.4 with 0.01% w/v casein, NeutrAvidin DyLight 650, MFI; three independent experiments
[2] = biological target: Biotinylated recombinant mouse serum albumin (Mus musculus) (UniProt P07724); assay: as above

In the case of “NbAlb1 displayed on the surface of yeast as NbAlb1-(G4S)3-HA-pStalk fusion protein (VHH)”, the pKd [1] was 8.18 and the pKd [2] was 7.26.

— publication PMC10804666
